The record followed here is publication PMC3923242, “New function for Escherichia coli xanthosine phophorylase (xapA): genetic and biochemical evidences on its participation in NAD^+ salvage from nicotinamide” (BMC Microbiology, 2014).

For orientation: Km means the concentration of substrate that gives half-maximal velocity.

Substrate in this data set: NC(=O)c1cccnc1
Put plainly: purified protein. Type of data set: biochemical, Escherichia coli. As to conditions: 20 mM ribose-1-phosphate, 50 mM MES pH 6.0, 37 °C, 30 min, 0.1 mg/ml xapA, NR synthesis direction.

B1: xanthosine phosphorylase (xapA; purine nucleoside phosphorylase II, PNP-II) (Escherichia coli K-12) (protein)
chain: MSQVQFSHNPLFCIDIIKTYKPDFTPRVAFILGSGLGALADQIENAVAISYEKLPGFPVSTVHGHAGELVLGHLQGVPVVCMKGRGHFYEGRGMTIMTDAIRTFKLLGCELLFCTNAAGSLRPEVGAGSLVALKDHINTMPGTPMVGLNDDRFGERFFSLANAYDAEYRALLQKVAKEEGFPLTEGVFVSYPGPNFETAAEIRMMQIIGGDVVGMSVVPEVISARHCDLKVVAVSAITNMAEGLSDVKLSHAQTLAAAELSKQNFINLICGFLRKIA
notes: ORF from E. coli genomic DNA in pET28a (EcoRI/HindIII), expressed in E. coli Rosetta (DE3), Ni-NTA purified (His-tag), tag removal not described
On to B1, for which the Km came out at 5.81 mM.
